We go through 3 molecules from patent US20230212258A1 (MCMASTER UNIVERSITY, published 2023).

Experiment [1] deals with T1, Her2Fc (UniProt P04626 23-652, limits assumed).
T1 construct: It is printed both as Her2Fc and as FcHer2; also called FcHer2; FcHer2 antigen; not shown: Fc part
Description: flow cytometry, transduced T cells incubated with Her2Fc (FIG. 2). As for the experimental part:
T-cells had been incubated with Her2Fc, which later was detected via flow cytometry. The presented data was gated on CD8+ lymphocytes. The shown gates were chosen based on the untransduced control.

Experiment [2] deals with T1, Her2Fc. Briefly: flow cytometry, engineered PBMC, NGFR marker and FcHer2 (FIG. 16B).
A further experiment addresses Lck (UniProt P06239 2-509, limits assumed). Description: pull-down from 293TM lysates on Her2 antigen beads, western blot for Lck. On the procedure: In FIG. 13A, Her2 antigen was covalently attached to magnetic beads. […] Beads were incubated with cell lysates over night and subsequently washed and western blotted. Lck was detected using an Lck antibody, TACs were detected via Myc antibody. […] Signal was corrected relative to the negative control.

Substitutions are numbered along the chain they refer to. Names and notes keep the numbering of the source.

Sequence of Lck (P06239 2-509 limits assumed): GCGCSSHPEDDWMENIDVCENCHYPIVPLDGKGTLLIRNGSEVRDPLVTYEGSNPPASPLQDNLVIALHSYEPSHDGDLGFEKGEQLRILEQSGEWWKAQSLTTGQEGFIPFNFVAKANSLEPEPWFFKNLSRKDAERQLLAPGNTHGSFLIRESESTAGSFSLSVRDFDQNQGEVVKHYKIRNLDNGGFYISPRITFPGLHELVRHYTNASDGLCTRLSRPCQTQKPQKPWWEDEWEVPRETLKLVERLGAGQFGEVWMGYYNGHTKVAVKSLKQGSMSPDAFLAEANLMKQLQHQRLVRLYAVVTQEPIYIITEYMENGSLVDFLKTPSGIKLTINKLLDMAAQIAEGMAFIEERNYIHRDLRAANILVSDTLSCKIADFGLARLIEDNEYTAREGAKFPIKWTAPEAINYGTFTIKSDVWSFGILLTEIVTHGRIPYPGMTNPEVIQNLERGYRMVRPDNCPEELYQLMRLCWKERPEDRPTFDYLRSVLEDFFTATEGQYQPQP

B1: N-Darpin Tri-TAC (receptor)
chain: MSRGSDLGKKLLEAARAGQDDEVRILMANGADVNAKDEYGLTPLYLATAHGHLEIVEVLLKNGADVNAVDAIGFTPLHLAAFIGHLEIAEVLLKHGADVNAQDKFGKTAFDISIGNGNEDLAEILQKLNEQKLISEEDLNPGGGGGSGGGGSGGGGSGGGGSGSMDIQMTQTTSSLSASLGDRVTISCRASQDIRNYLNWYQQKPDGTVKLLIYYTSRLHSGVPSKFSGSGSGTDYSLTISNLEQEDIATYFCQQGNTLPWTFAGGTKLEIKGGGGSGGGGSGGGGSGGGGSEVQLQQSGPELVKPGASMKISCKASGYSFTGYTMNWVKQSHGKNLEWMGLINPYKGVSTYNQKFKDKATLTVDKSSSTAYMELLSLTSEDSAVYYCARSGYYGDSDWYFDVWGQGTTLTVFSTSGGGGSLESGQVLLESNIKVLPTWSTPVQPMALIVLGGVAGLLLFIGLGIFFCVRCRHRRRQAERMSQIKRLLSEKKTCQCPHRFQKTCSPI
notes: Chimeric receptor expressed on engineered human T cells (in 293TM cells for the pull-down); also called full length CD4-TAC
Consider B1, for which the binding result with Her2Fc [1] is recorded as “binds”.

B2: CD4 TAC A85V, T161P mutant (receptor)
chain: B1 chain with A249V, T325P
notes: CD4 TAC with the mutated UCHT1 domain; also called UCHT1 (A85V, T161P)
On to B2, for which the binding result with Her2Fc [2] was “binds”.

B3: CD4 TAC -cytosol (receptor)
chain: MSRGSDLGKKLLEAARAGQDDEVRILMANGADVNAKDEYGLTPLYLATAHGHLEIVEVLLKNGADVNAVDAIGFTPLHLAAFIGHLEIAEVLLKHGADVNAQDKFGKTAFDISIGNGNEDLAEILQKLNEQKLISEEDLNPGGGGGSGGGGSGGGGSGGGGSGSMDIQMTQTTSSLSASLGDRVTISCRASQDIRNYLNWYQQKPDGTVKLLIYYTSRLHSGVPSKFSGSGSGTDYSLTISNLEQEDIATYFCQQGNTLPWTFAGGTKLEIKGGGGSGGGGSGGGGSGGGGSEVQLQQSGPELVKPGASMKISCKASGYSFTGYTMNWVKQSHGKNLEWMGLINPYKGVSTYNQKFKDKATLTVDKSSSTAYMELLSLTSEDSAVYYCARSGYYGDSDWYFDVWGQGTTLTVFSTSGGGGSLESGQVLLESNIKVLPTWSTPVQPMALIVLGGVAGLLLFIGLGIFF
notes: It was detected through its Myc tag in the pull-down; also called TAC cytosolic deletion variant; cytosolic deletion
For the molecule B3, the binding result with Lck was “no binding”.
